According to patent US8835609B2, “Antigen binding sites to non-functional oligomeric P2X7 receptors and methods of use thereof” (Biosceptre International Limited, priority 2009, dated 2014):

Legend:
[1] = system: Colo205 cells; test: ApoOne apoptosis assay, caspase 3/7 activity; type: cell-based, human; conditions: for Caspase 3/7 activation: COLO205, 3 day time course, antibodies up to 40 ug/mL
Procedure: FIG. 11. Mechanism of Cell Death Induced by 2F6 with Caspase 3/7 Activation Associated with Reactivation of Apoptosis. […] In contrast, the absence of drug or antibody has no effect (cells only column).
A mode of action by which the 2F6 is able to inhibit cell growth was determined by an ApoOne apoptosis assay in which caspase 3/7 activity was measured in combination with cell growth through the Cell Titer Blue assay. Colo205 cells were grown in a 3-day growth assay with increasing 2F6 from 0-40 ug/mL. The gemcitabine positive control was added to establish the degree of apoptosis that may be elicited by the presence of bound antibody.

[2] = system: Lewis Lung (LL) tumour; test: Lewis Lung (LL) syngeneic xenograft model, lung metastases; type: in vivo, mouse; conditions: 5 mL/kg daily; Day 11
Procedure: Dosing occurred every 3 days at antibody concentrations of 1 or 10 mg/kg i.v. or with PBS for treatment control or Sorafenib at 5 mL/kg daily as a positive control in the Lewis Lung model. Mice were randomised into equal groups of 10 mice, based on tumour volume on Day 0 of the studies.
Mice were anaesthetised for blood collection and euthanised by exsanguination via terminal cardiac bleed 48 hours post-final dose, on Days 11 or 14 post-initial treatment.
The lungs were excised from all mice. Lung surface metastases were counted and were categorised according to size: small (<1 mm), medium (≧1 mm and <3 mm) and large (≧3 mm). Excised lungs were preserved in 10% neutral buffered formalin.
The syngeneic Lewis Lung model was used with additional control groups. Besides the PBS control group of ten mice (Group 1), a positive control group using daily Sorafenib at 5 mL/kg was included (Group 5) along with antibody treatment groups consisting of sheep affinity purified E200-300 polyclonal antibody at 10 mg/kg (Group 2), 2F6-hIgG1 at 1 mg/kg (Group 3) and 2F6-hIgG1 at 10 mg/kg (Group 4).

[3] = target: T1, E200-300 epitope of P2X7 receptor (Homo sapiens, UniProt Q99572, INS205RNILPGGA); test: ELISA against immobilised antigen E200-300; type: binding
T1 construct: added C-terminal Cys (attachment point for BSA, DT, ovalbumin or KLH via MCS); purchased Chiron Mimotopes; host or cells: solid phase peptide synthesis
T1 sequence (Q99572 with tags, fused parts or gaps isoform Q99572-5 INS205RNILPGGA): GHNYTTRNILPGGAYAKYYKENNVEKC
Procedure: FIG. 18. ELISA of IgM, IgG2a and Fab Leads. Lead Affinity Matured 2F6-Derived Fab ELISA (scale 0.01-12.5 ug/mL for IgM and IgG2a; 0.1-100 ug/mL for Fabs).
The 2F6 VH and VL gene fragments were amplified and assembled into an E. coli expression/secretion vector. Both the 2F6 scFv and Fab were transformed into E. coli and expression of the gene construct induced. The E. coli cultures were harvested 5 hours post induction and the scFv and Fab analysed for binding using ELISA and Biacore against immobilised antigen E200-300.
Mutagenesis of the 2F6 scFv was introduced through a combination of error prone PCR, NNK randomisation and sequence length variation of HCDR3. A mutated library in the phagemid vector was of order 1×10^7. Screening of the library for higher affinity mutants employed a combination of phage display with filter expression assays using biotinylated E200-300 antigen. A selection of higher affinity scFv lead phage clones underwent small scale expression of soluble antibody fragments with affinities measured using ELISA and Biacore.

[4] = target: T2, non-functional receptors on live COLO-205 cells (Homo sapiens, UniProt Q99572); test: Flow cytometry binding to live COLO205 cells; type: cell-based; conditions: FLAG-tagged Fabs; anti-FLAG secondary
T2 construct: endogenous in cells; host or cells: COLO-205 (human colorectal tumour cells)
T2 sequence (Q99572 1-595): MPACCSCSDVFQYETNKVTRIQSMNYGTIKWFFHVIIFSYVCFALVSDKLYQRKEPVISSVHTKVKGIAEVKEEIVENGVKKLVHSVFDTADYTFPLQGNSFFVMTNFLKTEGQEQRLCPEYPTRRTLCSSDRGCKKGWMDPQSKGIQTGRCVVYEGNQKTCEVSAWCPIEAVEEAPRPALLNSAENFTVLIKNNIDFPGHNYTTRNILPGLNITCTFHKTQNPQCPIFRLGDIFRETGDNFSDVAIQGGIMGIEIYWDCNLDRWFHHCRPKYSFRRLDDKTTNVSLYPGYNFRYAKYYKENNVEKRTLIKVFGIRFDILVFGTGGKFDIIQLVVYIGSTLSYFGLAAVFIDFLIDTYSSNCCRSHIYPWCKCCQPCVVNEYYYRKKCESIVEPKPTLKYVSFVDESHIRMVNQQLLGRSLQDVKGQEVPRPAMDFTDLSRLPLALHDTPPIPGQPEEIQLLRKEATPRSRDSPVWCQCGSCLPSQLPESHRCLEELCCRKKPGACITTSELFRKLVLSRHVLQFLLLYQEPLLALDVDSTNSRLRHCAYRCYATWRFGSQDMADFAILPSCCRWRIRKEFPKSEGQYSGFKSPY
Description: (§1) FIGS. 19(a)-(b). (a) Flow cytometry results for binding recombinant Fabs to live colorectal COLO205 tumour cells. A Sigma anti-FLAG secondary antibody (#F4049) was used to detect the binding of the primary antibodies. WT 2F6 Fab bound weakly over the same concentration range. The EC50 for the four lead Fabs is very similar to the values obtained from ELISA measurements. (b) Very similar improved binding results were obtained for prostate PC3 cells.
(§2) Flow cytometry was used to measure the enhanced binding of selected affinity matured recombinant Fabs in human COLO-205 and PC3 cell lines over that of the starting 2F6 sequence. Recombinant FLAG-tagged Fabs were bound to cells and detected using a Sigma F4049 murine monoclonal anti-FLAG antibody conjugated to FITC used at a concentration of 1:75. Affinity purified sheep 200-300 antibody was examined for direct comparison with the 2F6 mIgG2a WT by Flow to PC3 cells.

[5] = system: prostate PC3, colon COLO205, breast MDAMB231, melanoma A375 and breast MCF7; test: Cell Titer Blue assay of cell growth, range of cancer cell lines; type: cell-based; conditions: for cell growth: 3-day or 5-day growth, antibody 0-40 ug/mL
Procedure: (§3) FIGS. 9(a)-(d). (a) In Vitro Cell Inhibition Assays. […] Growth over 5 days is inhibited to a greater extent than over 3 days. The growth data is plotted relative to the control growth curves obtained using the control IgM antibody.
(§4) Cells were seeded at appropriate density and grown over a 3-day or 5-day period to reach a level close to confluence at the end of the test period in the presence of control antibodies and in the presence of test antibodies, either IgM or IgG2a types of 2F6 over the concentration range 0-40 ug/mL. Testing of cell line growth was conducted with seed densities ranging from 100-2000 cells/well.

[6] = target: T3, non-functional receptors on live PC3 cells (Homo sapiens, UniProt Q99572); test: Flow cytometry binding to PC3 cells; type: cell-based
T3 construct: endogenous in cells; host or cells: PC3 (human prostate tumour cells)
T3 sequence (Q99572 1-595): T2 sequence (Q99572 1-595)
Description: as §1
FIG. 20. A comparison was made with various preparations of recombinant 2F6 IgG2a to determine the relative binding strength of the WT formatted antibody to PC3 cells compared with the affinity matured Fabs. Rockland IgG2a #010-001-332 was used for control to determine background (diamond).
as §2

[7] = system: COLO205; test: Cell Titer Blue cell growth assay, COLO205; type: cell-based, human
Procedure: as §3, §4

[8] = system: MCF-7 breast cancer cell line; test: Cell Titer Blue cell growth inhibition with peptide blocking, MCF-7; type: cell-based; conditions: for growth inhibition after pre-incubation of antibody with soluble peptide epitope: 3 days
Procedure: FIG. 10. Blocking Reaction in Cell Killing Assay. The Cell Titer Blue cell growth inhibition assay is used over three day cell growth with MCF-7 breast cancer cell line. Note the viable control cells in the right column have no antibody or peptide. The left hand column is the signal derived from the cells incubated with 10 ug/mL 2F6 IgM antibody containing 500 ug/mL peptide epitope (E200-300 epitope described as 200/300 in Figure), sufficient to block the cell growth inhibition evidenced by the data in the three central columns that show growth inhibition is not affected by the presence of 50 ug/mL, 5 ug/mL or 0 ug/mL peptide respectively.
as §4

[9] = system: MCF-7 cells; test: Direct cell killing, confocal microscope images; type: cell-based; conditions: 20 ug/mL; 24 hours exposure
Procedure: FIG. 12. Direct Cell Killing by 2F6 IgM. Confocal microscope images of MCF-7 cells in presence of control IgM antibody (a) and 2F6 IgM (b) for 24 h.

## Nc1ccn([C@@H]2O[C@H](CO)[C@@H](O)C2(F)F)c(=O)n1 [Gemcitibine, gemcitabine, reference compound]
[1]
  Caspase 3/7 activation: activate caspases

## CNC(=O)c1cc(Oc2ccc(NC(=O)Nc3ccc(Cl)c(C(F)(F)F)c3)cc2)ccn1 [Sorafenib, reference compound]
[2]
  Mean Lung Surface Mets: 0.1
  inhibition of lung metastases relative to PBS control: 96%

B1: WT Fab: recombinant Fab of wildtype 2F6 expressed in E. coli (antibody, V domains shown)
VH: DVKLVESGGGLVKLGGSLKLSCAASGFTFSSYYMSWVRQTPEKRLELVAAINSNGGSTYYPDTVKGRFTISRDNAKNTLYLQMSSLKSEDTAFYYCTRHYSSRFFDVWGAGTTVTVSS
VL: MADIVMTQSQKFMSTSVGDRVSVTCKASQNVGTNVAWYQQKPGQSPKALIYSASFRYSGVPDRFTGSGSGTDFTLTISNVQSEDLAEFFCQQYNSYPFTFGSGTRLEIK
[3]; ELISA, Fab format
  binding compared with selected affinity matured leads: much lower (2-logs) binding
[3]; scale 0.01-12.5 ug/mL for IgM and IgG2a, 0.1-100 ug/mL for Fabs
  EC50 (ELISA): very low EC50
[4]
  binding to live COLO205 cells: bound weakly

B2: 2F6 IgG2a: 2F6 VH and VL chains spliced into a mouse IgG2a sequence, expressed in HEK293 cells (antibody, V domains shown)
VH: B1 VH
VL: B1 VL
[5]
  cell growth: inhibited cell growth
[5]; over 3 days
  cell growth inhibition compared with the IgM form: weaker cell inhibition
[6]
  binding to PC3 cells: comparable to the binding elicited by the lead Fabs

B3: 2F6 IgM: hybridoma clone 2F6, mouse IgM with Kappa light chains, raised to P2X7 E200-300; CDR3 HYSSRFFDV (antibody, V domains shown)
VH: B1 VH
VL: B1 VL
modifications: IgM constant regions
notes: hybridoma clone 2F6, mouse IgM with Kappa light chains, raised to P2X7 E200-300; CDR3 …
[5]
  cell growth: inhibited cell growth
[7]; over 3 days, relative to control IgM
  COLO205 growth: significantly inhibited
[7]; over 5 days, even at low dose of 2.5 ug/mL
  COLO205 cells: eliminated
[8]; 10 ug/mL antibody, E200-300 peptide 500 ug/mL
  growth inhibition after pre-incubation of antibody with soluble peptide epitope: no longer able to affect cell growth
[8]; 10 ug/mL antibody, E200-300 peptide 5-50 ug/mL
  growth inhibition after pre-incubation of antibody with soluble peptide epitope: no effect on the inhibition
[8]; 10 ug/mL antibody, over 3 days
  MCF7 cell growth: greatly inhibits cell growth
[8]; after 5 days of exposure
  MCF-7 cell growth: Total inhibition of cell growth
[1]
  Caspase 3/7 activation: steady increase
[1]; Colo205, 3-day growth assay
  antibody concentration sufficient to initiate full caspase 3/7 (apoptosis) activity: 20 to 40 µg/mL
[9]
  cell death (confocal images): many cells are already dead
